From patent US20210380669A1 (SCHOLAR ROCK, published 2021)
Residue numbers refer to the chain shown, from its start. One block for each binder: values may come before it.

Tests used:
histidine tagged hRGMc = molecular target: T1, histidine tagged hRGMc (human, UniProt Q6ZVN8 36-400); test: MSD-SET, full-length antibody against human RGMc-his
T1 construct: also called human RGMc-his; not shown: histidine tag
T1 sequence: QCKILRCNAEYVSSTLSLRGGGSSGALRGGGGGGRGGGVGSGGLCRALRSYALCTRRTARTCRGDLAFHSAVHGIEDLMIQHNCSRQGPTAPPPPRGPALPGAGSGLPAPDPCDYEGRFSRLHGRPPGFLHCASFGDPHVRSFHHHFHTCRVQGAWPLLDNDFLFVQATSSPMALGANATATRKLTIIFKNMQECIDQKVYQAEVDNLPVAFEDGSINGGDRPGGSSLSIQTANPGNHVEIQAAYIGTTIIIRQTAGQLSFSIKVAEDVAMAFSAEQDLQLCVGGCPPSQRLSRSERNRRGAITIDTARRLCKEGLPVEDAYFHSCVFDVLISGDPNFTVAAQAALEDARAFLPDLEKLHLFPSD
Protocol: The titration was then added to a pre-coated plate with a capture antibody (pre-labeled with an NHS-sulfotag) that depletes any free antigen from solution. After a 150 second incubation, the plate was washed 3 times and an SA-sulfotag reagent was added and incubated for 3 min. After additional washes the plate was read on a MesoQuickPlex SQ120.
A similar MSD-SET assay was performed with the full-length antibodies against the human RGMc-his antigen to determine binding affinity (KD)).

[1] = molecular target: T2, recombinant, soluble human RGMc fused to an Fc (human, UniProt Q6ZVN8 36-400, limits assumed); test: cell-based or functional assay
T2 sequence: T1 sequence

histidine tagged hRGMa = molecular target: T3, histidine tagged hRGMa (human, UniProt Q96B86 46-425, limits assumed); test: Octet (BLI), antibody on AHC biosensor, his-tagged hRGMa in solution (concentrations from paragraph 460)
T3 construct: also called RGMa-his; not shown: histidine tag
T3 sequence: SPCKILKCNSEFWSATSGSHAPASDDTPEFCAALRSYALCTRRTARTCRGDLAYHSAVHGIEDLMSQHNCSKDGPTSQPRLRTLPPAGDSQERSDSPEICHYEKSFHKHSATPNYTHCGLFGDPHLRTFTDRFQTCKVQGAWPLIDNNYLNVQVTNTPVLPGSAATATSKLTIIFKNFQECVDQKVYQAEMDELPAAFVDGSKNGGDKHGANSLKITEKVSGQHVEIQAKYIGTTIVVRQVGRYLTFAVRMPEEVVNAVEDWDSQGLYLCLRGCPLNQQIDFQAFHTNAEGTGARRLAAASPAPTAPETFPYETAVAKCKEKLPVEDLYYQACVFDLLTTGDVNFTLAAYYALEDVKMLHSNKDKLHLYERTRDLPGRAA
Protocol: (§1) Antibodies that are selective for RGMc were generated using known techniques as describe herein. RGMc specificity over RGMa and RGMb was verified using an in vitro binding assay (i.e., Octet®). […] After loading, a baseline reading was obtained by placing the tips into 1× Kinetics Buffer before calculating the on rate, or association, of the antibodies by presenting them to histidine tagged hRGMc, hRGMa, or hRGMb, at varying concentrations (900 nM, 300 nM, 100 nM, and 33 nM). After reaching binding saturation, a dissociation step was performed to calculate the off rate by moving the tips back into 1× Kinetics Buffer. The rate of binding and dissociation can then be used to calculate the KD, or binding affinity of each antibody to the main target (RGMc) while ensuring no cross binding to RGM family members (RGMa and RGMb).

[2] = molecular target: T2, recombinant, soluble human RGMc fused …; test: cell-based or functional assay; remark: listed apart in the source
histidine tagged hRGMb = molecular target: T4, histidine tagged hRGMb (human, UniProt Q6NW40 46-413); test: Octet (BLI), antibody on AHC biosensor, his-tagged hRGMb in solution (concentrations from paragraph 460)
T4 construct: not shown: histidine tag
T4 sequence: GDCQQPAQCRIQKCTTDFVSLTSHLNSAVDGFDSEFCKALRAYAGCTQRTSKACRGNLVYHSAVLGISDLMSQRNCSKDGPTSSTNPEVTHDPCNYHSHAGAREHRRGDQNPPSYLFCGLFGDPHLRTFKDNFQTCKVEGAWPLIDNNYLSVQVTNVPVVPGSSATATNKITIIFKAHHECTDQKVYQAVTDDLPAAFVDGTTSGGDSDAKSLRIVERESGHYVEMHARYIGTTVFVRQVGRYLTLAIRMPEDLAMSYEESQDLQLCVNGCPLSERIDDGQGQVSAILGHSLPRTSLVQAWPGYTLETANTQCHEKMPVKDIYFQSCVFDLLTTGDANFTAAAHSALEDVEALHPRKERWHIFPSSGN
Protocol: as §1

B1: SR-RC-AB9 (antibody, V domains shown)
VH: QVQLVQSGAEVKKPGSSVKVSCKASGGTFSSYSIQWVRQAPGQGLEWMGGIIPIFGVASYAQKFQGRVTITADESTSTAYMELSSLRSEDTAVYYCARGAIAATYGLGMDVWGQGTTVTVSS
VL: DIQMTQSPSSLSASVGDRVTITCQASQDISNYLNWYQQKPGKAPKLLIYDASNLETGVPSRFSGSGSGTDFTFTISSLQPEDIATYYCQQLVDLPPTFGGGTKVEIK
notes: Tested as a full-length antibody
- Kd (histidine tagged hRGMc): 24 pM
- EC50 (ug/mL), BMP activity assay [1]: 3.45 µg/mL

B3: SR-RC-AB3 (antibody, V domains shown)
VH: B1 VH with S33A, Q35S, V57T, S59N
VL: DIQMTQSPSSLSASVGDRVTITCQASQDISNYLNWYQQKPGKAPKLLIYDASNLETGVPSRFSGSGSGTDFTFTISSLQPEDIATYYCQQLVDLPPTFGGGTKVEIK
notes: Tested as a full-length antibody, captured by anti-human IgG Fc sensors; also called parental antibody
- Kd (histidine tagged hRGMc): 4300 pM
- binding result (histidine tagged hRGMa): no binding (tested: 900 nM)
- EC50 in the BRE reporter assay (BMP6 reporter activity, luciferase RLU) [2]: 6830 pM
- binding result (histidine tagged hRGMb): no binding (tested: 900 nM)
- EC50 (ug/mL), BMP activity assay [1]: 4.83 µg/mL

Continued, values first:

- Kd (histidine tagged hRGMc): 21 pM
- EC50 (ug/mL), BMP activity assay [1]: 3.87 µg/mL
B2: SR-RC-AB7 (antibody, V domains shown)
VH: B1 VH with K19R, S33A, A102V
VL: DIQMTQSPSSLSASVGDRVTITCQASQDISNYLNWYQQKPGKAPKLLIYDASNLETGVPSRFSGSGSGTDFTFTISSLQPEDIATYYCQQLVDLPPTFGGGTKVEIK
notes: as for B1

- Kd (histidine tagged hRGMc): 39 pM
- EC50 (ug/mL), BMP activity assay [1]: 3.63 µg/mL
B4: SR-RC-AB8 (antibody, human IgG4, V domains shown)
VH: B1 VH with S30R, Q35S, S59N, I101Y, A102E
VL: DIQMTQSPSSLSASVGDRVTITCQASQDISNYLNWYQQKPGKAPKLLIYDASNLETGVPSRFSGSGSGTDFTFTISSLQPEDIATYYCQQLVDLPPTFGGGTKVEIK
